Test results reported in US20190292229A1 (COMMISSARIAT A L ENERGIE ATOMIQUE ET AUX ENERGIES …, published 2019).

Target: T1, N1-525 with an Histidine tag (full length measles virus nucleoprotein, Edmonston strain) (measles virus (Edmonston strain), UniProt P0DXN6 1-525)
T1 construct: also called full length N
T1 sequence: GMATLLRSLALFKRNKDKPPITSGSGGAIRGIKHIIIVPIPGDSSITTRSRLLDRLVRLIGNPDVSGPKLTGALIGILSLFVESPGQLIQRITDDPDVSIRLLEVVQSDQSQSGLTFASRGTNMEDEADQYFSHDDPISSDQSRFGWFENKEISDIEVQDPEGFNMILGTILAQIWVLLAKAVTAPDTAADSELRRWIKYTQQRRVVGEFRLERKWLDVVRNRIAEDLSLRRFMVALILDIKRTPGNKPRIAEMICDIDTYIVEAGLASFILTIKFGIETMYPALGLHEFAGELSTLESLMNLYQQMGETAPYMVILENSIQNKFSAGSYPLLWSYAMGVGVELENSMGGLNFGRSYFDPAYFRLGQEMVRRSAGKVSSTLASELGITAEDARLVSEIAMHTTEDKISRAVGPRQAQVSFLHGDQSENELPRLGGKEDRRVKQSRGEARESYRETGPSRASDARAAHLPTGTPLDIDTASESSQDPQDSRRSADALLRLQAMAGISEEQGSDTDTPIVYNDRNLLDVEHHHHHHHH
Test: co-expression, TEV cleavage, SAXS and SEC-MALLS

B1: P1-50 with a TEV peptide amino acid sequence (first 50 amino acids of measles virus phosphoprotein, Edmonston strain, after TEV cleavage) (peptide)
peptide: MAEEQARHVKNGLECIRALKAEPIGSLAIEEAMAAWSEISDNPGQERATCENLYFQN
notes: Produced as a P1-50-TEV site-N fusion in E. coli and cleaved with TEV; also called P1-50 peptide; minimal P peptide
B1: binds.
